According to patent US20130251728A1 (Regeneron, published 2013):

B1: H4H1339P (antibody, V domains shown)
VH: EVQLVESGGGMVQPGGSLRLSCAASGFTSSNYDMHWVRQATGKGLEWVSSIDTAGDTYYPDSVKGRFIISRENAKNSLYLQMNSLRAGDTAVYYCTREPRNYEILTGHYHYHGMDIWGQGTTVTVS
VL: AIQMTQSPSSLSASVGDRVTITCRASQAIRNDLGWYQQKPGKAPKLLIYTAFSLQSGVPSRFSGSKSGTDFTLTISSLQPEDFATYYCLQDYTNPRTFGQGTKVEIK
notes: Fully human anti-GCGR antibody; the controls are called isotype-matched hIgG4
B2: H4H1331P (antibody, V domains shown)
VH: QVQLVESGGGVVQPGRSLRLSCAASGFTFSNFGMHWVRQAPGKGLEWVAVIWFDEIDKYYADSVKGRFTISRDNSKNTLYPQMNSLRAEDTAVYYCAREDYDILTGYYYAMDVWGQGTTVTVS
VL: DIQMTQSPSSLSASVGDRVTITCRASQGIKNDLGWYQQKPGKAPKRLIYAASRLQSGVPSRFSGSGSGTEFTLTISSLQPEDFGTYYCLQHNSHPTFGQGTKVEIK
notes: as for B1
B3: H4H1321P (antibody, V domains shown)
VH: QVQLVESGGGVVQPGRSLRLSCAASGFTFSSYDMHWVRQAPGKGLEWVAVISSDGRDKYYVDSVKGRFTISRDNSKNTLYLQMNSLRAEDTAVYYCAKEMVYYDILTGYHNYYGMDVWGQGTTVTVS
VL: DIQMTQSPSSLSASVGDRVTITCRASQGINNYLAWFQQKPGKAPKSLIHTASSLQSGVPSKFSGSGSGTDFTLTISSLQPEDFATYYCQQYNTYPLTFGGGTKVEIK
notes: as for B1

How the values were obtained:
mfGCGR-hFc [1] = target: T1, mfGCGR-hFc (cynomolgus monkey (Macaca fascicularis)); assay: SPR Biacore T100, 25C, mAb captured, antigen flowed
T1 construct: also called mfGCGR-N-terminal hFc
T1 sequence (chain, as listed by the source limits assumed): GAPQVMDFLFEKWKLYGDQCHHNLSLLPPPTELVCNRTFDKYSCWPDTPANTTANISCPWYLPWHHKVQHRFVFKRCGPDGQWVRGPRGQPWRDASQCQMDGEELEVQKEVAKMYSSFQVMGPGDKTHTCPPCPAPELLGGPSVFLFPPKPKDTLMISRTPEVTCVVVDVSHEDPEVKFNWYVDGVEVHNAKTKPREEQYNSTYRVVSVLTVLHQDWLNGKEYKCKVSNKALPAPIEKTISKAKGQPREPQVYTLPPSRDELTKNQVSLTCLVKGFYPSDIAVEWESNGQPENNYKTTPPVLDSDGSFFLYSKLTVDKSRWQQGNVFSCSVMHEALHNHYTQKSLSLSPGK
Procedure: (§1) Measurements were conducted on a T100 Biacore instrument. Antibodies were captured onto the Biacore sensor chip surface via a covalently-linked anti-human kappa antibody capture surface, and the soluble GCGR proteins were applied to the surface either in a monovalent (hGCGR expressed with a myc-myc-hexa-histidine C-terminal tag) or bivalent (hGCGR and MfGCGR expressed with an N-terminal Fc fusion) format.
(§2) Binding dissociation equilibrium constants and dissociative half-lives were calculated from the kinetic rate constants as: KD=kd/kₐ; t_{1/2}=(In2/kd).

hGCGR-mmh [2] = target: T2, hGCGR-mmh (human); assay: as above
T2 construct: also called REGN547; monovalent hGCGR
T2 chain: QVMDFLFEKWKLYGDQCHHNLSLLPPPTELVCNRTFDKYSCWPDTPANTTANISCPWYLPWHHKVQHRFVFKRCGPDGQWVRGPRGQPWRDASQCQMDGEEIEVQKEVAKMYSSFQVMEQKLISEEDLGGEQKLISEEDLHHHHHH
Procedure: as §1, §2

hGCGR-hFc [3] = target: T3, hGCGR-hFc (human); assay: as above
T3 construct: also called REGN316
T3 sequence (chain, as listed by the source limits assumed): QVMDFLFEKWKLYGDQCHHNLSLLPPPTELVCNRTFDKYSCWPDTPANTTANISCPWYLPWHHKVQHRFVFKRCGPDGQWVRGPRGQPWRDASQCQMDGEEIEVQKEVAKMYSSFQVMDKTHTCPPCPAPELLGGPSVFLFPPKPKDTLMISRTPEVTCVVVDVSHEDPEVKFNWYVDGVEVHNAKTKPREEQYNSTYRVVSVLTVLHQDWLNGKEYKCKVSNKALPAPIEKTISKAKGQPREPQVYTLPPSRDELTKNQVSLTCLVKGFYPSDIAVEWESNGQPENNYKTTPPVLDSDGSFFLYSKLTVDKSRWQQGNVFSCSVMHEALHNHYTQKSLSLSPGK
Procedure: as §1, §2

[4] = target: mouse GCGR (full-length, on HEK293 reporter cells) (mouse, UniProt Q61606 27-485); assay: cell-based or functional assay
Sequence of mouse GCGR (full-length, on HEK293 reporter cells) (Q61606 27-485 limits assumed): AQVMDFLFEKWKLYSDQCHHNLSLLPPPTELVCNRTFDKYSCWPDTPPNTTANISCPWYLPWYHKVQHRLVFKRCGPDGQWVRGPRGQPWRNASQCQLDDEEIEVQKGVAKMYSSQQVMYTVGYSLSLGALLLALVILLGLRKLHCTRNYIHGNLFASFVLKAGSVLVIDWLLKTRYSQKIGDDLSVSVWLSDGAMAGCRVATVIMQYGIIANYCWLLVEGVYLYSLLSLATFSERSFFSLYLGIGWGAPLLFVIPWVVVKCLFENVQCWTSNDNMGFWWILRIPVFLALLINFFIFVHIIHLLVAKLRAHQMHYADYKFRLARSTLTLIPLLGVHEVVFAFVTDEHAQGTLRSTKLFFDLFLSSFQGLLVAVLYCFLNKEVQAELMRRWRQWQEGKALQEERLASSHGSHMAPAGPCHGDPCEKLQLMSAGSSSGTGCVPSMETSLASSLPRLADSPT

[5] = target: rat GCGR (full-length, on transiently transfected HEK293 reporter cells) (rat, UniProt P30082 27-485); assay: cell-based or functional assay
Sequence of rat GCGR (full-length, on transiently transfected HEK293 reporter cells) (P30082 27-485 limits assumed): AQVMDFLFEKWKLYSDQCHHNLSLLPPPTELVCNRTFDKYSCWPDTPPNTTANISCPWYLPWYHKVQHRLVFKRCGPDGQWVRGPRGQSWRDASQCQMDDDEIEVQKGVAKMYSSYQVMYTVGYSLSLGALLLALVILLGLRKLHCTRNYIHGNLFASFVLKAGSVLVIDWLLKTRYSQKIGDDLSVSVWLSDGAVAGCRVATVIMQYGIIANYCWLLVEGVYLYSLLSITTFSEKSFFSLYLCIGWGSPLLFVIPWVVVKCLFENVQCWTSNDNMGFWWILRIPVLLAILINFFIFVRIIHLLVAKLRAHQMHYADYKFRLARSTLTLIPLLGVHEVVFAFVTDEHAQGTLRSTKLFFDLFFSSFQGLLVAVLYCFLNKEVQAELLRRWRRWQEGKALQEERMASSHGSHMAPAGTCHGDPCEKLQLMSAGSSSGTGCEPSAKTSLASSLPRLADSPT

[6] = target: human GCGR (full-length, on HEK293 reporter cells) (human, UniProt P47871 27-477); assay: cell-based or functional assay
Sequence of human GCGR (full-length, on HEK293 reporter cells) (P47871 27-477): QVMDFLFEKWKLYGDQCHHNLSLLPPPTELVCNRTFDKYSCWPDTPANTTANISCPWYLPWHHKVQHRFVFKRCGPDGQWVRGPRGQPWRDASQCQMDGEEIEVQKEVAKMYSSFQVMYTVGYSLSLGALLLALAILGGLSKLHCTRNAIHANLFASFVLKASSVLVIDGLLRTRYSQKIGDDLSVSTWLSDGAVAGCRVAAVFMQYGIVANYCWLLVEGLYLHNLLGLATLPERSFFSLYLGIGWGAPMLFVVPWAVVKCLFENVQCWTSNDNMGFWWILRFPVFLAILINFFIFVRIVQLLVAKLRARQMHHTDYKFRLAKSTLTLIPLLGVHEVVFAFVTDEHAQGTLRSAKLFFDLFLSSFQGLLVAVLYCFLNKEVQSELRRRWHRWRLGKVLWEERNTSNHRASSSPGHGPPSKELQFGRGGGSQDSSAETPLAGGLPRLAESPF

[7] = target: T4, monkey (Macaca fascicularis) GCGR (full-length, on HEK293 reporter cells) (monkey (Macaca fascicularis), UniProt P47871 26-477 (human entry)); assay: cell-based or functional assay
T4 chain: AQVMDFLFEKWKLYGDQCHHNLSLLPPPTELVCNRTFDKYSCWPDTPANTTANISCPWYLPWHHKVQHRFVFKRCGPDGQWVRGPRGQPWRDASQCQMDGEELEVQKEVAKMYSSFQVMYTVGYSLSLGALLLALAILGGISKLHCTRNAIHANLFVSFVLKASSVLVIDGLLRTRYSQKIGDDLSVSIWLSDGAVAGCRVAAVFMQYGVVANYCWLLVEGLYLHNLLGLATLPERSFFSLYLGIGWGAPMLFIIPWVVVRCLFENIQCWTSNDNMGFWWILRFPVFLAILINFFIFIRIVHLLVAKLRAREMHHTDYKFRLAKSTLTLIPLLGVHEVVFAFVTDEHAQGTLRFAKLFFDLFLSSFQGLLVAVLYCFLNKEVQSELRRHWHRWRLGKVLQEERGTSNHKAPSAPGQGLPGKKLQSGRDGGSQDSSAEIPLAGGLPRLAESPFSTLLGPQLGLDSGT

mfGCGR-hFc [8] = target: T1, mfGCGR-hFc; assay: SPR Biacore T100, 37C, mAb captured, antigen flowed
Procedure: as §1, §2

hGCGR-mmh [9] = target: T2, hGCGR-mmh; assay: as above
Procedure: as §1, §2

hGCGR-hFc [10] = target: T3, hGCGR-hFc; assay: as above
Procedure: as §1, §2

| Binder | Kd (mfGCGR-hFc [1]) | T½ (mfGCGR-hFc [1]) | koff (mfGCGR-hFc [1]) | kon (mfGCGR-hFc [1]) | Kd (hGCGR-mmh [2]) | T½ (hGCGR-mmh [2]) | koff (hGCGR-mmh [2]) | kon (hGCGR-mmh [2]) | Kd (hGCGR-hFc [3]) | T½ (hGCGR-hFc [3]) | koff (hGCGR-hFc [3]) | kon (hGCGR-hFc [3]) | IC50, inhibition of 100 pM GCG-stimulated luciferase activity, mGCGR reporter cells [4] | IC50, inhibition of 100 pM GCG-stimulated luciferase activity, rat GCGR reporter cells [5] | IC50, inhibition of 100 pM GCG-stimulated luciferase activity, hGCGR reporter cells [6] | IC50, inhibition of 100 pM GCG-stimulated luciferase activity, mfGCGR reporter cells [7] | Kd (mfGCGR-hFc [8]) | T½ (mfGCGR-hFc [8]) | koff (mfGCGR-hFc [8]) | kon (mfGCGR-hFc [8]) | other results |
| --- | --- | --- | --- | --- | --- | --- | --- | --- | --- | --- | --- | --- | --- | --- | --- | --- | --- | --- | --- | --- | --- |
| B1 | 0.0182 nM | 8.43 h | 2.28e-05 s⁻¹ | 1.26e+06 M⁻¹ s⁻¹ | 0.825 nM | 0.367 h | 0.000532 s⁻¹ | 645000 M⁻¹ s⁻¹ | 0.0618 nM | 3.1 h | 6.2e-05 s⁻¹ | 1e+06 M⁻¹ s⁻¹ | 1.6 nM | 0.97 nM | 0.46 nM | 2.85 nM | 0.0631 nM | 1.8 h | 0.000107 s⁻¹ | 1.69e+06 M⁻¹ s⁻¹ | Kd (hGCGR-mmh [9]): 4.91 nM; T½ (hGCGR-mmh [9]): 0.05 h; koff (hGCGR-mmh [9]): 0.0043 s⁻¹; kon (hGCGR-mmh [9]): 876000 M⁻¹ s⁻¹; Kd (hGCGR-hFc [10]): 0.318 nM; T½ (hGCGR-hFc [10]): 0.517 h; koff (hGCGR-hFc [10]): 0.000371 s⁻¹; kon (hGCGR-hFc [10]): 1.17e+06 M⁻¹ s⁻¹ |
| B2 | 0.0069 nM | 23.7 h | 8.12e-06 s⁻¹ | 1.17e+06 M⁻¹ s⁻¹ | 0.17 nM | 1.73 h | 0.000111 s⁻¹ | 657000 M⁻¹ s⁻¹ | 0.0202 nM | 12.5 h | 1.54e-05 s⁻¹ | 760000 M⁻¹ s⁻¹ | 1.62 nM | 3.87 nM | 0.66 nM | 8.29 nM | 0.0257 nM | 4.68 h | 4.12e-05 s⁻¹ | 1.6e+06 M⁻¹ s⁻¹ | Kd (hGCGR-mmh [9]): 0.533 nM; T½ (hGCGR-mmh [9]): 0.367 h; koff (hGCGR-mmh [9]): 0.000519 s⁻¹; kon (hGCGR-mmh [9]): 973000 M⁻¹ s⁻¹; Kd (hGCGR-hFc [10]): 0.0779 nM; T½ (hGCGR-hFc [10]): 2.12 h; koff (hGCGR-hFc [10]): 9.12e-05 s⁻¹; kon (hGCGR-hFc [10]): 1.17e+06 M⁻¹ s⁻¹ |
| B3 | 0.0238 nM | 4.6 h | 4.18e-05 s⁻¹ | 1.76e+06 M⁻¹ s⁻¹ | 3.54 nM | 0.05 h | 0.00374 s⁻¹ | 1.06e+06 M⁻¹ s⁻¹ | 0.238 nM | 0.683 h | 0.000285 s⁻¹ | 1.2e+06 M⁻¹ s⁻¹ | 1.13 nM | 1.21 nM | 0.27 nM | 4.03 nM | 0.0347 nM | 2.53 h | 7.59e-05 s⁻¹ | 2.19e+06 M⁻¹ s⁻¹ | Kd (hGCGR-mmh [9]): 12.8 nM; T½ (hGCGR-mmh [9]): 0.0167 h; koff (hGCGR-mmh [9]): 0.0202 s⁻¹; kon (hGCGR-mmh [9]): 1.58e+06 M⁻¹ s⁻¹; Kd (hGCGR-hFc [10]): 0.077 nM; T½ (hGCGR-hFc [10]): 1.77 h; koff (hGCGR-hFc [10]): 0.000109 s⁻¹; kon (hGCGR-hFc [10]): 1.41e+06 M⁻¹ s⁻¹ |
